Earlier results, collected in publication PMC11475284.
Several values for one entry are separate records, joined by “and”; a condition that tells them apart may be missing. Equal entries are not always repeated.

Biological target: Axin1 DAX (Homo sapiens) (UniProt O15169)
Experiment: SEC-MALS

Kd: 900 nM and 240 nM
Substance: Axin1 DAX (from UniProt O15169)
